Target: T1, LexA-TFIIB fusion protein (UniProt P29055 1-345)
T1 sequence (looked up): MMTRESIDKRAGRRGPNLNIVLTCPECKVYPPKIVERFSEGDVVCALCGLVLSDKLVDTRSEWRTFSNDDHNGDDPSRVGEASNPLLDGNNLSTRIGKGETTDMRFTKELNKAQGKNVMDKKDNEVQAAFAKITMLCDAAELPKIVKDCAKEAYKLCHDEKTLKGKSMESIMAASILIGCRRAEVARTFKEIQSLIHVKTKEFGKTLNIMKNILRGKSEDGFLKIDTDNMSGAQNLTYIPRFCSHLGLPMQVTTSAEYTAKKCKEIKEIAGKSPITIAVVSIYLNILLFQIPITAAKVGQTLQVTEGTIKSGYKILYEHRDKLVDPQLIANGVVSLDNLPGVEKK
Assay: cell-based or functional assay

## WWWWWWW [B42-W7 fusion protein (heptatryptophan, W7)]
  transcriptional activity (beta-gal reporter) of W7 fused to LexA, relative to the native pentapeptide WYDWW fused to LexA: ~3 fold

— paper PMC2992532, “A tryptophan-rich peptide acts as a transcription activation domain” (BMC Molecular Biology, 2010)
